Data taken from PMC7329908.

Legend:
[1] = target: C. elegans Hsp90 (HSP-90) (C. elegans) (UniProt Q18688); assay: AUC; sedimentation velocity with fluorescence detection; 600 nM ATTO 488-labelled GRLBDm, 3 μM unlabelled chaperones and cofactors, 2 mM ATPγS; 20 mM HEPES, 20 mM KCl, 5 mM MgCl2, 50 μM dexamethasone, pH 7.5; 42,000 rpm, 20 °C
[2] = target: C. elegans Hsp90 (HSP-90) (C. elegans) (UniProt Q18688); assay: AUC; sedimentation velocity with fluorescence detection; 600 nM ATTO 488-labelled GRLBDm, 3 μM unlabelled chaperones and cofactors, no nucleotide; 20 mM HEPES, 20 mM KCl, 5 mM MgCl2, 50 μM dexamethasone, pH 7.5; 42,000 rpm, 20 °C

“ATTO 488-labelled GRLBDm, the ligand-binding domain of the human glucocorticoid receptor stabilized by mutagenesis (F602S/A605V/V702A/E705G/M752T) (domain or fragment)” gave a fraction of GRLBDm bound [1] of 0.22, a fraction of GRLBDm bound (with Cep23/DAF-41 added) [1] of 0.28 and a fraction of GRLBDm bound [2] of 0.49.
